# System: HT22 nerve cell
# Type: cell-based, Mouse
substance,measurement,value
Botulinum Toxin Type A [Botox],induction of apoptosis in HT22 cells,dose‐dependent induction of apoptosis
same,necrocytosis of HT22 cells,neither RSI prion nor Botox induced necrocytosis
